According to US20220257796A1:

The substances below were run against CD46 (human) (UniProt P15529) (assay: Kd of fiber knob to CD46, Table 1 (method not given)).
Sequence of UniProt P15529 (P15529 35-343 limits assumed): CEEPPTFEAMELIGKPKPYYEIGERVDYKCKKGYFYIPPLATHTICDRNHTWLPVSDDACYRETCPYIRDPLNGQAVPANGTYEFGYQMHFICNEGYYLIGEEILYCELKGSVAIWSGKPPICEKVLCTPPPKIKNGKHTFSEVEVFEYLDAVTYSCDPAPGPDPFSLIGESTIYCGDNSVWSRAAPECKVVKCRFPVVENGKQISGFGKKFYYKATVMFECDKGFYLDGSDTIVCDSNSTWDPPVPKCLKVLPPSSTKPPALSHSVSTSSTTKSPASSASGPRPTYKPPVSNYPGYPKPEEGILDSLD
Ad11 (fiber knob) (from UniProt P33681) was tested, and the Kd was 11.2 nM. Substance “Ad35 fiber knob mutant A8: Ile192Val Ile256Val (from UniProt Q92854)” has a Kd of 13.7 nM. “Ad35 fiber knob mutant B4: Thr245Ala (from UniProt Q8NHJ6)” gave a Kd of 7.64 nM. With “Ad35 fiber knob mutant B5: Ile256Leu (from UniProt P46977)” the Kd was 11 nM.
